# Source: the nanobody polyreactivity screen of Harvey et al. (2022)
# Test: yeast display, Sf9 membrane polyspecificity reagent, FACS + sequencing; frameworks hold sequencing errors
# Summary of the method: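 In a synthetic yeast display library (Saccharomyces cerevisiae BJ5465), nanobody expression was induced with galactose for 36–48 hours. FACS gates were set low and high (top ~1%) using anti-HA fluorescence for expression and streptavidin fluorescence for binding of the Sf9 membrane reagent. Each polyreactivity label is drawn from the gate of origin.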
row,Sequence,polyreactivity (PSR sort gate)
1,QVQLVESGGGLVQAGGSLRLSCAASGITFRQYAMGWYRQAPGKEREFVAAISWIGGSTYYADSVKGRFTISRDTAKNTVYLQMNSLKPEDTAVYYCAAETFTDYDYWGQGTQVTVSS,high polyreactivity
2,QVQLVESGGGLVQAGGSLRLSCAASGITFRRNAMGWYRQAQGKESQLVAAITSRGGSTYYADSVKWRFTISRDNAKNTVYLQMISMKPEDTAVYYCNAGGVDRVDRDYWGQGTQVTVSS,high polyreactivity
3,QVQLVESGGGLVQAGGSLRLSCAASGITFRRYTMGWYRQAPGKEMELVAAISRIGGSTYYADSVKGRFTISRDNAKNTVYLQMNSLKPEDTAVYYCARAGRVQPGSEDDYWGQGTQVTVSS,high polyreactivity
4,QVQLVESGGGLVQAGGSLRLSCAASGITFRSYAMGWYRQAPGKERELVAAISQSGTSTYYADSVKGRFTISRDNAKNTVYLQMNSLKPEDTAVYYCAASYYLKLRRRRYDYWGQGTQVTVSS,high polyreactivity
5,QVQLVESGGGLVQAGGSLRLSCAASGITFRWYAMGWYRQAPGKERELVASISSGGITTYADSVKGRFTISRDNAKNTVYLQMNSLKPEDTAVDYCNAVGHTSIRRALDILDYWGQGTQVTVSS,high polyreactivity
6,QVQLVESGGGLVQAGGSLRLSCAASGITFRYSAMGWYRQAPGKERELVAVISTSGGSTYYADSVKGRFTISRDNAKNTVYLQMNSLKPEDTAVYYCAARYTYWGLLRYDYWGQGTQVTVSS,high polyreactivity
7,QVQLVESGGGLVQAGGSLRLSCAASGITFRYYAMGLYRQAPGKERELVAAITRSASSTFYADSVKGRFTISRDNAKNTVYLQMNSLKPEVTAVYYCAAESVRAVFPDRYKYWGQGTQVTVSS,high polyreactivity
8,QVQLVESGGGLVQAGGSLRLSCAASGITFRYYAMGWYRQAPGKERELVAAISRSGGRTYYADSVKGRFTISRDNAKNTVYLQMNSLKPEDTAVYYCAVAVRRGRAYDYWGQGTQVTVSS,high polyreactivity
9,QVQLVESGGGLVQAGGSLRLSCAASGITFRYYAMGWYRQAPGKERELVAAITRSGSTTYADSVKGRFTISRDNAKNTVYLQMNSLKPEDTAVYYCAVDYYYLTGGVDYWGQGTQVTVSS,low polyreactivity
10,QVQLVESGGGLVQAGGSLRLSCAASGITFRYYAMGWYRQAPGKERELVAVISTSGGSTYYADSVKGRFTISRDNAKNTVYLQMNSLKPEDTAVYYCAARYTYWGLLRYDYWGQGTQVTVSS,high polyreactivity
11,QVQLVESGGGLVQAGGSLRLSCAASGITFRYYAMGWYRQAPGKERELVAVISTSGGSTYYADSVKGRFTISRDNAKNTVYLQMNSLKPEDTAVYYCAVVWPYSERYYYWGQGTQVTVSS,high polyreactivity
12,QVQLVESGGGLVQAGGSLRLSCAASGITFRYYAMGWYRQAPGKERELVAVITYSGSRTYYADSVKGRFTISRDNAKNTVYLQMNSLKPEDTAVYYGATKGAKRVIGETAYDYWGQGTQVTVSS,high polyreactivity
13,QVQLVESGGGLVQAGGSLRLSCAASGITFRYYTMGWYRQAPGKERELVAAITWSGSSTYYADSVKGRFTISRDNAKNTVYLQMNSLKPEDTAVYYCNAVPYDYLADYWGQGTQVTVST,low polyreactivity
14,QVQLVESGGGLVQAGGSLRLSCAASGITFSFYAMGWYRPAPGKERELVAAINGRGGRTYYADSVKGRFTISRDNAKNTVYLQMNSLKPEDTAVYYCAAVVWRTDYDYWGQGTQVTVSS,low polyreactivity
15,QVQLVESGGGLVQAGGSLRLSCAASGITFSFYAMGWYRQAPGKERELVAGLTRSGGDTYYADSVKGRFTISRDNAKNTVYLQMNSLKPEDTAVYYCAAAWFFYRRQYTFFAGRMDYWGQGTQVTVSS,high polyreactivity
16,QVQLVESGGGLVQAGGSLRLSCAASGITFSGNAMGWYRQAPGKERELVAAISGGGSTNYADSVKGRFTISRDNAKNTVYLQMNSLKPEDTAVYYCAAEIIFWYLYRDYYYWGQGTQVTVSS,low polyreactivity
17,QVQLVESGGGLVQAGGSLRLSCAASGITFSNYAIGWYRQAPGKERELVAAISKRGGSTYYADSVKGRFTISRDNAKNTVYLQMNSLKPEDTAVYYCAAAGVRVYVRSGLDYWGQGTQVTVSS,high polyreactivity
18,QVQLVESGGGLVQAGGSLRLSCAASGITFSPSAMGWCRQAPGKERELVAAITSGGSTNYADSVKGRFTISRDNAKNTVYLQMNSLKPEDTAVYYCAAGRWPAPWYTRNYWGQGTQVTVSS,low polyreactivity
19,QVQLVESGGGLVQAGGSLRLSCAASGITFSPYAMGWYRQAPGKERELVAAISSRGGSTYYADSVKGRFTISRDNAKNTVYLQMNSLKPEDTAVYYCNALTFVRYLFHYTYWGQGTQVTVSS,high polyreactivity
20,QVQLVESGGGLVQAGGSLRLSCAASGITFSSYAMGWYRQAPGKERELVAGITRRGGITYYADSVKGRFTISRDNAKNTVYLQMNSLKPEDTAVYYCAATHRFRTGSPDGGYGYWGQGTQVTVSS,high polyreactivity
21,QVQLVESGGGLVQAGGSLRLSCAASGITFSSYTMGGYRQAPGKERELVARINSGGTTNYADSVKGRFTISRDNAKNTVYLQMNSLKPEDTAVFYCAAEWVSWRWAHKFDYWGQGTQVTVSS,high polyreactivity
22,QVQLVESGGGLVQAGGSLRLSCAASGITFSVYAMGWYRQAPGKEWELVASISSGGTSTYYADSVKGRFTISRDNAKNTVYLQMNSLKPEDTAVYYCAAYSYYTGDQYSYDYWGQGTQVTVSS,low polyreactivity

row,Sequence,polyreactivity (PSR sort gate)
1,QVQLVESGGGLVQAGGSLRLSCAASGITFSYNDMGWYRPAPGKEREFVATIRGSTARTYNADSVKGRFTISRDNAKNTVYLQMNSLKPEDTAVYYGAAGKYWYGYDYWGQGTQVTVSS,high polyreactivity
2,QVQLVESGGGLVQAGGSLRLSCAASGITFSYYAMGWYRQAPGKERELVAAINSGGGSTYYADSVKGRFTISRDNAKNTVYLQMNSLKPEDTAVYYCAARYRSRYDYYYDRDYWGQGTQVTVSS,low polyreactivity
3,QVQLVESGGGLVQAGGSLRLSCAASGITFSYYAMGWYRQAPGKERELVAVISRRGGTTYYADSVKGRFTISRDNAKNTVYLQMNSLKPEDTAVYYCAATYISVLGYEYWGQGTQVTVSS,high polyreactivity
4,QVQLVESGGGLVQAGGSLRLSCAASGITFTFNAKGWYRQAPGKERELVAAISSTTSTIYADSVKRRFTISRDNAKNTVYLQMNRLKPEDTAVYYCAAVEFELLGDYWRQGTQVTVSS,low polyreactivity
5,QVQLVESGGGLVQAGGSLRLSCAASGITFTFNAMGWYRQAPGKDRELVAAMTWSGGSTFYADSVKGRFTISRDNAKNTVYLQMNSLKPEDSAVYYCARDTELYVRWLDYWGQGTQVTVSS,low polyreactivity
6,QVQLVESGGGLVQAGGSLRLSCAASGITFTGYAMVWYRQAPGKERELVAAIRGGGNTYYADSVKGRFTISRDNAKNTVYLQMNSLKPEDTAVYYCAADDIAHQYFVSTVDVGMDYWGQGTQVTVSS,low polyreactivity
7,QVQLVESGGGLVQAGGSLRLSCAASGITFTQYTMGWYRQARGKQRELVAAISSSGGRTYYADSVKGRYTISRDNAKKTVYLQMNSLKPEDTAVYYCAAAWRRTFDYCGQGTQVTVSS,high polyreactivity
8,QVQLVESGGGLVQAGGSLRLSCAASGITFTRNAMGWYRQAPGKERELVATISGSGGGTYYADSVKGRFTISRDNAKNTVYLQMNSLKPEDTAVYYCNARRWYYWQGTARYDYWGQGTQVTVSS,low polyreactivity
9,QVQLVESGGGLVQAGGSLRLSCAASGITFTSYAMGWYRQAPGKERELVAAISSSGGSTYYADSVKGRFTISRDNAKNTVYLQMNSLKPEDPAVYYCNARPRSRSPRVEYDYWGQGTQVTVSS,high polyreactivity
10,QVQLVESGGGLVQAGGSLRLSCAASGITFVHYAMGWYRQAPGKERELVAAISSGGGSTYYADSVKGRFTISRDNAKNTVYLQMNSLKPGVTAVYYCAAYVLPYGEYDYWGQGTQVTVSS,low polyreactivity
11,QVQLVESGGGLVQAGGSLRLSCAASGITFVLNALGWYRQAPRKERELVARISWSTGSTYYADSVKGRFTISRDNAKNTVYLQMNSLKPEDTAVYYCAVDYNVQSLYVVVEGEYWGQGTQVTVSS,low polyreactivity
12,QVQLVESGGGLVQAGGSLRLSCAASGITFVLYAMGWYRQAPGKERELVAAITWRGGSTYYADSVKGRFTISRDNAKNTVYLQMNSLKPEDTAVYYCAAVQFTSYRQGDYWGQGTQVTVSS,low polyreactivity
13,QVQLVESGGGLVQAGGSLRLSCAASGITFVNYAMGWYIQAPGKERELVAAISQSGAITFYADSVKGRFTISRDYAKNNVYLQMNSLKPEDTEVYYCAARRRRGDRSAYDYWGQGTQVTVSS,high polyreactivity
14,QVQLVESGGGLVQAGGSLRLSCAASGITFVPNAMGWYRQAPGKERELVARIDNGVSTNYADSVKGRFTISRDNAKNTVYLQMNSLKPEDTAVYYCAKDGYWGDWDQYYWGQGTQVTVSS,low polyreactivity
15,QVQLVESGGGLVQAGGSLRLSCAASGITFVPYAMGWYRQAPGKERELVAAISSSGGSTYYADSVKGRFTISRDNAKNTVYLQMNSLKPEDTAVYYCNVRTHSYIGMDYWGQGTQVTVSS,low polyreactivity
16,QVQLVESGGGLVQAGGSLRLSCAASGITFVRNAKGWYRPAPGTERELVAAISSGGSTYYADSVKGRFTISRDNAKNTVYLQMNSLKPEDTAVYYCAVLSSWRFSGYDYWGQGTQVTVSS,low polyreactivity
17,QVQLVESGGGLVQAGGSLRLSCAASGITFVRNALGWYRQAPGKEREFVAAISWSGGSTYYADSVKGRFTISRDNAKNTVYLQMNSLKPEDTAVYYCNAGSSYLSRFPLDYWGQGTQVTVSS,high polyreactivity
18,QVQLVESGGGLVQAGGSLRLSCAASGITFVRYAMGWYRQAPGKERELVAAISSGGRTIYADSVKGRFTISRDHANNTVFVHMNSLKPEDTAVYYCSKRRARSGQDYDYWGQGTQVTVSS,low polyreactivity
19,QVQLVESGGGLVQAGGSLRLSCAASGITFVRYAMGWYRQAPGKERELVAAISSGGSTHYADSVKGRFTISRDNAKNTVYLQMNSLKPEDTAVYYCAAQWTESSLYRFGYLGQGTQVTVSS,high polyreactivity
20,QVQLVESGGGLVQAGGSLRLSCAASGITFVSYAMGWYRQAPGKERELVAAISSWSGGTTYYADSVKGRFTISRDNAKNTVYLQMNSLKPEDTAVYYCAAVSFGSYRLGYWGQGTQVTVSS,high polyreactivity
21,QVQLVESGGGLVQAGGSLRLSCAASGITFVWNAMGWYRQAPGKERELVATISRGGVRTYYADSVKGRFTISRDNAKNTVYLQMNSLKPEDTAVYYCAADGSYVHWEYGYWGQGTQGTVSS,low polyreactivity
